Target: T1, human ITIH-1 antigen (inter-alpha trypsin inhibitor heavy chain 1) (human)
T1 construct: Produced in HEK293F cells and purified; used as the immunogen; also called SHAP
Experiment: biolayer interferometry, AR2G biosensor, antibody as ligand
Procedure: 5D6 and 9E1 were bound to ITIH1 with high affinity, as shown in the table below, and affinity was determined by AbClon Inc. using an AR2G (Bio-Sensor).

T1 sequence (chain, as listed by the source limits assumed): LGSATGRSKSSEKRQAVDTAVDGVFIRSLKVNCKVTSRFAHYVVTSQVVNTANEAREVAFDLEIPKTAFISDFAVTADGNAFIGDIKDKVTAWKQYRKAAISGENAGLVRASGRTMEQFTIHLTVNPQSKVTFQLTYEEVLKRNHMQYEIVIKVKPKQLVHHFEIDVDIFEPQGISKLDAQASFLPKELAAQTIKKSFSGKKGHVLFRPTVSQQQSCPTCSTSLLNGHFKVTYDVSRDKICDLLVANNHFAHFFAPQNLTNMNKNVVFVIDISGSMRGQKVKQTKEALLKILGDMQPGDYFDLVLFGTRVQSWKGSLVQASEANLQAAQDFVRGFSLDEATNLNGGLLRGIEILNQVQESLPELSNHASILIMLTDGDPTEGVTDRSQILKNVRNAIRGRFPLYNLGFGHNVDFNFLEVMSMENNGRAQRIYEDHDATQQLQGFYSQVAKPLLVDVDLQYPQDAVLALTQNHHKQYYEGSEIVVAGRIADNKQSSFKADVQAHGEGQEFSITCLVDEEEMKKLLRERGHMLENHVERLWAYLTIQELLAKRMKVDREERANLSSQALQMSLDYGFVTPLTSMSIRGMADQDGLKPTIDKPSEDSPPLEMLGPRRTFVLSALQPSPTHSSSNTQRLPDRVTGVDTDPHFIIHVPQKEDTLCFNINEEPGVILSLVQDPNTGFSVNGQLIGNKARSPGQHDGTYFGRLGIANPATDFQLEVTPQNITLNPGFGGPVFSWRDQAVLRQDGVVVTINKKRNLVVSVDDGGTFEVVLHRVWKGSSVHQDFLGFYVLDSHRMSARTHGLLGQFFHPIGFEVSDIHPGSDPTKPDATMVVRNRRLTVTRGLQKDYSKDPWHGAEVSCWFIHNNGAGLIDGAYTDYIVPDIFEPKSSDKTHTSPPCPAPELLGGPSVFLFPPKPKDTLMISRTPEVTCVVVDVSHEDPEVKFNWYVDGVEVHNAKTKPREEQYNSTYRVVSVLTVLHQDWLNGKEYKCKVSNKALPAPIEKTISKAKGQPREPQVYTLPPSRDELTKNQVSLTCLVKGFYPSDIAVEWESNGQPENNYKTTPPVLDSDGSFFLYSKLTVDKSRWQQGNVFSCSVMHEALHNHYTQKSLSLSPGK

Row | Kd [pM] | koff [s⁻¹] | kon [M⁻¹ s⁻¹] | Binder
1 | 133 | 4.45e-05 | 334000 | monoclonal antibody 9E1 against ITIH1 (antibody, V domains shown, Mouse (BALB/c) hybridoma monoclonal antibody made by AbClon Inc; also called antibody clone 9E1; 9E1 clonal antibody) VH: EVQLQQSGTVLARPGASVKMSCRASGYSFTSYWMHWVKQRPGQGLEWIGSIYPGNTDTNYNQKFKGKAKLTAVTSASTAYMELSSLTNEDSAVYYCTRYGTSEGFAYWGQGTLVTVSA VL: DIVMTQSPASLAVSLGQRATISCRASQSVSTSSYSYMHWYQQKPGQPPKLLIKYASNLESGVPARFSGSGSGTDFTLNIHPVEEEDSATYYCQHSWEIPPTFGGGTKLEIK
2 | 243 | 7.05e-05 | 291000 | monoclonal antibody 5D6 against ITIH1 (antibody, V domains shown, Mouse (BALB/c) hybridoma monoclonal antibody made by AbClon Inc; also called antibody clone 5D6; 5D6 clonal antibody) VH: EVQLQQSGAELVKPGTSVKMSCKASGYTFTSYWMHWVRQRPGQGLEWIGDIYPGTDSTNYNEKFKSKATLTVDTSSSTAYMQLSSLTSEDSAVYYCSRSGDYYDYWGQGTTVTVSS VL: DIVLTQSPASLAVSLGQRATISCRASQSVSTSSYSYMHWYQQKPGQPPKLLIKYASNLESGVPARFSGSGSGTDFTLNIHPVEEEDTATYYCQHSWEIPWTFGGGTKLEIK

From patent publication US20220411488A1 (APHARMA, published 2022)
